In article PMC10733476, “OsDWARF10, transcriptionally repressed by OsSPL3, regulates the nutritional metabolism of polished rice”:

Molecular target: T1, OsSPL3 (Oryza sativa (indica, Minghui63; stated …, UniProt A2X0Q6 1-469)
T1 sequence: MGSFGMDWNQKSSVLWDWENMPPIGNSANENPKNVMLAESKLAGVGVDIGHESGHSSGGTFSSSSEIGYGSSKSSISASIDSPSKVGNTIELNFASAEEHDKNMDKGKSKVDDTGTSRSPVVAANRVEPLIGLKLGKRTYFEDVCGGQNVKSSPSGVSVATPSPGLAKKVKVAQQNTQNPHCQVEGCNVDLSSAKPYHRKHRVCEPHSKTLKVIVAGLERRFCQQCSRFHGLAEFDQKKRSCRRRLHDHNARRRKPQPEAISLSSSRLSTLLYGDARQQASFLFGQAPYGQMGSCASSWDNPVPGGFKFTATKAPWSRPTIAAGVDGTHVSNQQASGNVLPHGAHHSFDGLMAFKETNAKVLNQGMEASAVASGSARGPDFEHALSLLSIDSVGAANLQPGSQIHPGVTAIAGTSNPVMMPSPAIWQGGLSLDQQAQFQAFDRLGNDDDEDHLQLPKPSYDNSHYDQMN
Assay: EMSA; EMSA binding buffer (as printed, probably a concentrated stock): 125 mM Tris-HCl pH 8.0, 750 mM NaCl, 25 mM MgCl2, 100 mg/mL BSA, 50% glycerol, 5 mM DTT, 125 ng/uL salmon sperm DNA; 25 C, 20 min; 6% PAGE in 0.5x TG
Details: protein: recombinant; tags: N-terminal 6xHis (pET28A); label: 5' FAM on F strand; blunt

B1: D10 S1 (dsDNA)
DNA 1: CTCACACATGCTACTGATGATGTACGTACGGACGTTACGTAGCGCGCGGG
DNA 2: CCCGCGCGCTACGTAACGTCCGTACGTACATCATCAGTAGCATGTGTGAG
- binding result: binds

B2: D10 S2 (dsDNA)
DNA 1: CCACGCCCCACGTAACGTAGCGTACAGTGTACACCTGATTTCGCTCGGTC
DNA 2: GACCGAGCGAAATCAGGTGTACACTGTACGCTACGTTACGTGGGGCGTGG
- binding result: binds
